Earlier results on 1 substance are cited in publication PMC8920573.

pKd: −log10 of the molar value.

As usually defined, the pKd is the negative decadic logarithm of the Kd, by convention in mol/L.

The data set addresses SARS-CoV main protease main protease (Severe acute respiratory syndrome coronavirus) (UniProt P0C6X7).

On to “SARS-CoV main protease main protease (from UniProt P0C6X7)”, for which the pKd was 5.60.
